“And” between values parts separate entries of the source, which are not always exact repeats. Equal entries are not always repeated.
T1: CCR3 (UniProt P51677 1-355)
T1 sequence (looked up): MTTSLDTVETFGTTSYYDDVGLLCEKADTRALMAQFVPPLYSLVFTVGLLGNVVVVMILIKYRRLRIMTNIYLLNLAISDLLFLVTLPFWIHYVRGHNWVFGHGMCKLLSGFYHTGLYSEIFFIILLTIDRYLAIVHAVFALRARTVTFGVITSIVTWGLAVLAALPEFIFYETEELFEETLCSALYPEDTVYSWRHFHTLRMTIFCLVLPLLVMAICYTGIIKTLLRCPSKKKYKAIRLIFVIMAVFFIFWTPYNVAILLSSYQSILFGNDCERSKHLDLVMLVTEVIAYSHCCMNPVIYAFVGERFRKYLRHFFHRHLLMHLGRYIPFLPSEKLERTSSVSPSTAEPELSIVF


Tests used:
CCR3 [1] = target: T1, CCR3; experiment: cell-based or functional assay
CCR3 [2] = target: T1, CCR3; experiment: cell-based or functional assay; remark: listed apart in the source
CCR3 [3] = target: T1, CCR3; experiment: radioligand binding; equilibrium competition on L1.2/CCR3 transfectants, tracer 0.1 nM 125I-CCL18, 0.1 x10^6 cells/well, competitor 10^-6 to 10^-12 M, room temperature 4 h, filtration; conditions: one partner purified
CCR3 [4] = target: T1, CCR3; experiment: radioligand binding; equilibrium competition on L1.2/CCR3 transfectants, tracer 0.1 nM 125I-CCL11, 0.1 x10^6 cells/well, competitor 10^-6 to 10^-12 M, room temperature 4 h, filtration; conditions: one partner purified

EC50 of CCL11-induced Ca2+ release in L1.2/CCR3 transfectants in the presence of 0 nM to 5 µM CCL18 (EC50 69.93 nM without CCL18, rising with the concentration) (CCR3 [1]) [nM] | IC50 of CCL18 for inhibition of chemotaxis of L1.2/CCR3 transfectants to 1 nM CCL11 (experiment shown in Figure 1A) (CCR3 [1]) [nM] | IC50 of CCL18 for inhibition of chemotaxis of L1.2/CCR3 transfectants to 1 nM CCL11 (mean of 7) (CCR3 [2]) [nM] | IC50 of CCL18 for inhibition of chemotaxis of L1.2/CCR3 transfectants to 10 nM CCL5 (CCR3 [2]) [nM] | IC50 of CCL18 for inhibition of chemotaxis of L1.2/CCR3 transfectants to 10 nM CCL26 (CCR3 [2]) [nM] | IC50 of CCL18 for inhibition of chemotaxis of L1.2/CCR3 transfectants to 100 nM CCL15 (CCR3 [2]) [nM] | IC50 (CCR3 [3]) | IC50 (CCR3 [4]) | Binder
10500 | 397 | 318 | 40.8 | 123 | 2.9 | 6.8 nM and 8.86 nM | – | CCL18 (ligand, human, UniProt P55774 21-89, looked up, CCL18 chemokine, unlabelled; also called PARC; MIP-4; source: purchased from PeptroTech or produced as previously described [30]) AQVGTNKELCCLVYTSWQIPQKFIVDYSETSPQCPKPGVILLTKRGRQICADPNKKWVQKYISDLKLNA
– | – | – | – | – | – | – | 7.4 nM and 13.2 nM | CCL11 (ligand, CCL11 chemokine, unlabelled; source: purchased from PeptroTech or produced as previously described [30]) not shown
